Results on 17 molecules are retold here after US20110293610A1 (published 2011).

Assay [1] addresses T1, biotinylated B Lymphocyte Stimulator, soluble form (human, UniProt Q9Y275 134-285, biotinylated with NHS-biotin, molar ratio 20:1 biotin:protein).
T1 construct: also called bio-B Lymphocyte Stimulator; free B Lymphocyte Stimulator
The experiment in a line: phage scFv, receptor binding inhibition on IM9 cells. How it is done: All of the unique phage scFvs from panel 2 were assessed for their ability to inhibit B Lymphocyte Stimulator binding to its cognate receptor on IM9 cells. The biotinylation of B Lymphocyte Stimulator, maintenance of IM9 cells and receptor binding inhibition assay were performed as described in Example 3.

Assay [2] concerns the target T2, HIS-tagged B Lymphocyte Stimulator (human, UniProt Q9Y275 71-285).
T2 construct: Expressed in E. coli; also called HIS-B Lymphocyte Stimulator; histidine-tagged B Lymphocyte Stimulator; not shown: histidine tag from the pQE9 vector
The experiment in a line: BIAcore, periplasmic scFv over high density HIS-BLyS surface. As to the method: All BIAcore analysis was performed on BIAcore 2000 machines, using the BIAcore 2000 control software and evaluated using the BIAevaluation 3.0 software. A high density His-tagged B Lymphocyte Stimulator surface (>1000 RU HIS-B Lymphocyte Stimulator coupled) was prepared in flow cell 2 by amine coupling to a CM5 chip. A new CM5 chip was inserted into the BIAcore and a sensorgram started over flow cell 2 with HBS buffer at a flow rate of 5 μl/min. The NHS and EDC solution were mixed 1:1 before injecting 30 μl over the CM5 surface. Fifty μl HIS-B Lymphocyte Stimulator (at 10 μg/ml in Sodium acetate buffer, pH4) was injected and allowed to couple to the surface. Thirty μl of ethanolamine-HCl solution was then injected to block free NHS esters. Prior to using the chip, 10 μl of 4M Guanidine hydrochloride in HBS was injected over the surface to strip the surface of non-covalently bound B Lymphocyte Stimulator. A blank surface (no HIS-B Lymphocyte Stimulator) was also prepared over flow cell 1 so that non-specific binding effects can be subtracted from the HIS-B Lymphocyte Stimulator binding curves.
The 96-well plate containing periplasmic scFvs was secured inside the BIAcore. Two ml of 4M Guanidine hydrochloride in HBS was placed in a rack inside the BIAcore for regeneration of the HIS-B Lymphocyte Stimulator surface between samples. The sensorgram was run over flow cells 1 and 2 at a flow rate of […].
Background: In SPR one partner is held on a chip, and binding of the other changes the refractive index at the surface.

B1: I068B04 (scFv)
scFv: QVQLVQSGAEVKKPGSSVKVSCKASGGTVSSRTISWVRQAPGQGLEWMGGSLPPSGAPIYAQKFQGRVAITADALTNTAFMELRSLKSDDTAVYYCARDQGRYLDLWGRGTLVTVSSGGGGSGGGGSGGGGSALPVLTQPPSASATPGQRVTISCSGSSSNIGSNYVYWYQQLPGTAPKVLIYRNNQRPSGVPDRFSGSRSGTSASLAISGLRSEDEADYYCATWDDSLSGPVFGGGTKVTVLG
Turning to B1, the binding result in assay [1] is “binds”.

B2: I079C01 (scFv)
scFv: EVQLVESGGGLVQPGGSLRLSCAASGFTFSDYGMHWVRQRPGKGLEWIAFIGSDGSNKYYGDTVKGRFTISRDNAKNSLYLQMNSLRAEGTAVYYCARDWDMDVWGQGTMVTVSSGGGGSGGGGSGGGGSHVILTQPRSVSGSPGQSVTISCTGTSSDVGGYHYVSWYQQHPGKAPRLMIYEVTKRPSGVSNRFSGSKSGNTASLTISGVQAEDEADYYCSSYTSASTVIFGGGTKLTVLG
As for B2, the binding result in assay [2] is reported as “binds”.

B3: I065D08 (scFv)
scFv: GVQLVQSGAEVKKPGASVKVSCKASGYTFTSYGISWVRQAPGQGLEWMGWISAYNGNTNYAQKLQGRVTMTTDTSTSTAYMELRSLRSDDTAVYYCARTPSSVYDLLTGYYHYFYSYMDVWGRGTMVTVSSGGGGSGGGGSGGGGSQSVLTQPASVSGSPGQSITISCTGTSSDVGGYNYVSWYQQHPGEAPKLMIYEGSKRPSGVSNRFSGSKSGNTASLTISGLQAEDEADYYCSSYTTRSTRVFGGGTKLTVLG
Turning to B3, the binding result in assay [1] is “binds”.

B4: I002A01-R (scFv)
scFv: QVQLVQSGAEVKKPGSSVKVSCRASGGSFNRHAISWVRQAPGRGLEWMGGILPMYGTANYAQKFQGRVTITADKLTNTVYMDLSRLRYEDTAVYYCARELGLSIVGATTGALDMWGKGTLVTVSSGGGGSGGGGSGGGGSALPVLTQPPSVSVAPGQTATLTCGGTNFGRQSVHWYQQKPGQAPVLAIYHDDVRPSGIPERLSGSKSGNTATLTISRVEAGDEAAYYCQVWDSGSDVVVFGGGTKLTVLG
In the case of B4, in assay [1], the binding result is reported as “binds”.

B5: I002A01-K (scFv)
scFv: QVQLVQSGAEVKKPGSSVKVSCRASGGSFNKHAISWVRQAPGRGLEWMGGILPMYGTANYAQKFQGRVTITADKLTNTVYMDLSRLRYEDTAVYYCARELGLSIVGATTGALDMWGKGTLVTVSSGGGGSGGGGSGGGGSALPVLTQPPSVSVAPGQTATLTCGGTNFGRQSVHWYQQKPGQAPVLAIYHDDVRPSGIPERLSGSKSGNTATLTISRVEAGDEAAYYCQVWDSGSDVVVFGGGTKLTVLG
Consider B5, for which the binding result in assay [1] is reported as “binds”.

B6: I064C07 (scFv)
scFv: QVQLVQSGAEVKKPGSSVKVSCKASGGTFSSYAISWVRQAPGQGLEWMGGIIPIFGTANYAQKFQGRVTITADDLTRTAYMEMSSLKFEDTAVYYCASSEGTIFGVDWGRGTLVTVSSGGGGSGGGGSGGGGSDIQMTQSPSFLSASVGDRVTITCRASQGINNYLAWYQQKPGRAPKLLMYAASSLQSGVPSRFSGSGSGTDFTLTISSLQPEDFATYYCLQDSDYPLTFGGGTKLEIKR
In the case of B6, in assay [1], the binding result is listed as “binds”.

B7: I084C04 (scFv)
scFv: VQLVQSGAEVKKPGASVKVSCKASGYTFTSYGISWVRQAPGQGLEWMGWINPNSGGTNYAQKFQGRVTMTRDTSISTAYMELSRLRSDDTAVYYCARNLWGLDYWGKGTMVTVSSGGGGSGGGGSGGGGSSELTQDPAVSVALGQTVRITCQGDSLRSYYASWYQQKPGQAPVLVIYGKNNRPSGIPDRFSGSSSGNTASLTITGAQAEDEADYYCNSRDSSGNHVVFGGGTKLTVLG
Consider B7, for which the binding result in assay [2] was “binds”.

B8: I026C04-R (scFv)
scFv: QVQLVQSGAEVKKPGSSVKVSCRASGGSFNRHAISWVRQAPGRGLEWMGGILPMYGTANYAQKFQGRVTITADKLTNTVYMDLSRLRYEDTAVYYCARELGLSIVGATTGALDMWGKGTLVTVSSGGGGSGGGGSGGGGSAQSVLTQPPSVSAAPGQKVTISCSGSSSNIGNNYVSWYQQIPGTAPKLLIYENNKRPSGIPDRFSGSKSGASATLDITGLQTGDEADYYCGTWHSSQVVFGGGTKLTVLG
As for B8, in assay [1], the binding result was “binds”.

B9: I072B09 (scFv)
scFv: QVQLQQSGAEVKKPGASVKVSCRASGYTFTKYTMHWVRQAPGQGPEWMGWINGGSGDTKYSRKFQGRVTITKDTSASAAYMELSSLGSEDTALYYCARATYDPLTGYSFDGFDIWGQGTLVTVSSGGGGSGGGGSGGGGSSELTQDPAVSVALGQTVRITCQGDSLRSYYTNWFQQKPGQAPLLVVYAKNKRPSGIPDRFSGSSSGNTASLTITGAQAEDEADYYCNSRDSSGNHVVFGGGTKLTVLD
With B9, the binding result in assay [1] is “binds”.

B10: I067B10 (scFv)
scFv: QMQLVQSGAEVKKPGASVKVSCKASGYTFTSYYMHWVRQAPGQGLEWMGWINAGNSNTKYSQKFQGRVTITSDTSASTAYMELSGLRSEDTAVYYCARDRGAPNYDILTGYYAPAQGVAFDIWGKGTLATVSSGGGGSGGGGSGGGGSQSVLTQPPSVSAAPGQKVTISCSGSTSNIGNNYVSWYQQHPGKAPKLMIYDVSKRPSGVPDRFSGSKSGNSASLDISGLQSEDEADYYCAAWDDSLSEFLFGTGTKLTVLG
Consider B10, for which the binding result in assay [1] is reported as “binds”.

B11: I069B07 (scFv)
scFv: QVQLVQSGAEVKKPGASVKVSCKASGYTFTSYGISWVRQAPGQGLEWMGWISAYNGNTNYAQKLQGRVTMTTDTSTSTAYMELRSLRSEDTAVYYCARMEYDILTGYYGGYFDYWGQGTMVTVSSGGGGSGGGGSGGGGSQSVLTQPASVSGSPGQSITISCTGTSSDVGGYNYVSWYQQHPGKAPKLMIYEGSKRPSGVSNRFSGSKSGNTASLTISGLQAEDEADYYCSSYTTRSTRVFGGGTKLTVLG
Consider B11, for which, in assay [1], the binding result was “binds”.

B12: I067F05 (scFv)
scFv: QVQLQQSGAEVKKPGSSVKVSCKASGGTFSSYAISWVRQAPGQGLEWMGRIIPIVNMANYAQKFQGRVTLTADKSTGTAYMELTSLRSEDTAVYYCARENYDSLTGYYGAFDIWGKGTMVTVSSGGGGSGGGGSGGGGSQSVLTQPASVSGSPGQSITISCTGTSSDVGGYNYVSWYQQHPGKAPKLMIYEGSKRPSGVSNRFSGSKSGNTASLTISGLQAEDEADYYCSSYTTRSTRVFGGGTKLTVLG
For the molecule B12, the binding result in assay [1] is “binds”.

B13: I064C04 (scFv)
scFv: QVQLVQSGAEVKKPGASVKVSCEASGYTFTSYGISWVRQAPGQGLEWMGWISTYNGNTRYPQKLQGRVTMTTDTSTSTAYMDLRSLRSDDTAVYYCARDGRLSYDILTGYYARDYYGMDDWGRGTMVTVSSGGGGSGGGGSGGGGSQSVLTQPASVSGSPGQSITISCTGTSSDVGGYNYVSWYQQHPGKAPKLMIYEGSKRPSGVSNRFSGSKSGNTASLTISGLQAEDEADYYCSSYTTRSTRVFGGGTKLTVLG
B13: the binding result in assay [1] was “binds”.

B14: I030A10 (scFv)
scFv: QVQLVQSGAEVKKPGSSVKVSCRASGGSFNHAISWVRQAPGRGLEWMGGILPMYGTANYAQKFQGRVTITADKLTNTVYMDLSRLRYEDTAVYYCARELGLSIVGATTGALDMWGRGTLVTVSSGGGGSGGGGSGGGGSAQAVLTQPSSVSGAPGQRVIISCTGSSSNIGPDYDVHWYQQLPGTAPKLLIYGNNNRPSGVPDRFSGSKSGTSASLAITGLQAEDEAHYYCQSYGSSLSGVVFGGGTKVTVLG
On to B14, for which the binding result in assay [1] is on record as “binds”.

B15: I065F08 (scFv)
scFv: QVQLQQSGAEVKKPGSSVKVSCKASGDTFSSFGISWVRQVPGQGLEWMGAIIPKFDIVTYAEEFKGRVTISADKLTNTAYMEVKSLRSEDTAVYYCTREKSAAGYFDYWGKGTLVTVSSGGGGSGGGGSGGGGSDIVMTQSPSTLSASVGDRVTITCRASQGISSWLAWYQQKPGRAPKVLIYKASTLESGVPSRFSGSGSGTDFTLTISSLQPEDFATYYCQQSYSTPWTFGQGTKLEIKR
For the molecule B15, the binding result in assay [1] is “binds”.

B16: I075F12 (scFv)
scFv: QVQLVQSGAEVKKPGSSVKVSCKASGGTVSSRTISWVRQAPGQGLEWMGGSLPPSGAPIYAQKFQGRVAITADALTNTAFMELRSLKSDDTAVYYCARDQGRYLDLWGQGTMVTVSSGGGGSGGGGSGGGGSAQAVLTQPSSASGTPGQRATISCSGSSSDIGINAVNWYKQLPRTAPKLLIYRNNQRPSGVPDRFSGSKSGTSASLAIIGLQSEDEADYYCATWDDSLTAYVFGTGTKVTVLG
In the case of B16, the binding result in assay [1] is recorded as “binds”.

B17: I075G01 (scFv)
scFv: QVQLVQSGAEVKKPGASVKVSCKTSGYTFTGYNINWVRQAPGQGLEWMGWVSPSNGDTSYAQTFQGRVTMTRDTSISTAYMELSSLKSDDTAVYYCARDHFDTLTGYFRRLDSWGQGTLVTVSSGGGGSGGGGSGGGGSALSSELTQDPEVSVALGQTVTITCQGDSLITHYASWFQQKPGQAPLLVFYSKDKRPSGIPDRFSGSYSGNTASLTITGAQAEDEADYYCNSRDSRGKNHVAFGGGTKLTVLG
As to B17, the binding result in assay [1] was “binds”.
